The values below come from PMC6336717.

For experiment [1], the target named is C3b (human) (UniProt P01024). The experiment is described as follows: ELISA; competition: C3b coated on the plate; FH 25 nM and WT Sbi-III-IV 1,000 nM with a concentration series of FHRs, FH19-20 or FHR-1 1-2; 1 h 37°C, PBST-2% BSA; FH bound detected with OX-24. Background: In an ELISA, binding on a coated surface is turned into a signal by an enzyme label.
Experiment [2] deals with C3b (human) (UniProt P01024). Briefly: ELISA; competition: C3b coated on the plate (0.25 ug/well); FH 25 nM with a concentration series of FHRs, FH19-20 or FHR-1 1-2, no Sbi; 1 h 37°C, PBST-2% BSA; FH bound detected with OX-24.

Sequence of factor H-related protein 1 (FHR-1), recombinant (Q03591 19-330): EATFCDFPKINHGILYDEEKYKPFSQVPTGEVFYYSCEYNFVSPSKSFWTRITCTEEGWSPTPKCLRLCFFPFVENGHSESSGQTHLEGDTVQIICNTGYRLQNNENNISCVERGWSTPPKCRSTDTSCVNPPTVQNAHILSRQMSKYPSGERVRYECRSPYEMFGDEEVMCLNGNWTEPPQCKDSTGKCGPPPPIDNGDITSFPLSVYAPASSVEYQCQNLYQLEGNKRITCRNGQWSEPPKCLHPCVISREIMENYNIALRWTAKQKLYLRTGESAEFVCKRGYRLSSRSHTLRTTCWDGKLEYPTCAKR

In the experiment with C3b (human) [1], “factor H-related protein 1 (FHR-1), recombinant (from UniProt Q03591 19-330) (natural protein)” yielded a percent residual FH bound to C3b at the highest FHR-1 concentration, with Sbi-III-IV WT of 0% and a percent residual FH bound to C3b at the lowest FHR-1 concentration, with Sbi-III-IV WT of 25%. In the experiment with C3b (human) [2], this substance displayed a percent residual FH bound to C3b at the highest FHR-1 concentration of 30% and a percent residual FH bound to C3b at the lowest FHR-1 concentration of 70%.
